According to patent publication US20100303724A1:
Values belong to the substance of their own block, whether it stands above or below them.

Experiments:
biotin-collagelin [1] = assay: SPR
biotin-collagelin [2] = assay: SPR; collagen injected on biotin-collagelin on a streptavidin sensorchip
biotin-collagelin [3] = assay: SPR; biotin-collagelin on a streptavidin sensorchip, IgG 1.25 to 10 µg/mL

Sequence of biotin-collagelin (peptide, as listed by the source): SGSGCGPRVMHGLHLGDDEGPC

Kd (biotin-collagelin [1]): 18.3 µM
Substance: murine laminin (Gibco)

RU bound (biotin-collagelin [2]): 10 RU
Substance: type I equine fibrillar collagen (Collagen Horm, Nycomed)

Kd (biotin-collagelin [3]): 1 µM
Substance: anti-human platelet GPVI 9O12.2 IgG (antibody)
